Measurements as given in the supplement of paper PMC9732359.
± gives the uncertainty stated by the source.

Assay: protein stability index of a GFP-peptide fusion (yeast GPS) (PSI 1-4); higher = more stable; sorted into four equal gates, so the index is relative within each strain
Conditions: ubr1∆
Summary of the method: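 For each peptide, the protein stability index sums the read frequency in every gate after multiplying it by the gate number. Read frequencies came from plasmids that were PCR-amplified from each gate and Illumina-sequenced, with reads assigned to strains by barcodes. The gates were four equal bins of GFP/Cherry fluorescence ratio applied to mid-log yeast in leucine-free medium carrying a pooled library of tiled 17-residue yeast protein peptides fused downstream of GFP on a Cherry-expressing plasmid.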

Sequence	protein stability index
DDENEPKRKRRLPVSED [YOR098C/NUP1]	3.06 ± 0.072
DDFTNELKAELDRYKRE [SEM1]	3.47 ± 0.24
DDIFIPQNMLFEGCYYT [RPC25]	2.76 ± 0.12
DDIFIRYLTLLSNEFTA [ECM29]	1.76 ± 0.029
DDLPYYVNALADVLYKT [QCR2]	2.63 ± 0.042
DDPSKVRLLCRSDGMGN [YLR335W/NUP2]	2.96 ± 0.15
DDQLKQRRQNIRDLEKL [RPT4]	3.15 ± 0.16
DDSLNRLAQNDGLLKNV [RPS21A]	3.38 ± 0.18
DDYEDQDDDDYVDTATA [IRR1]	3.22 ± 0.049
DDYILSGESVMDRDSES [SRB4]	3.21 ± 0.13
DEEASYKLGKVKKVQLG [RPS4A]	2.98 ± 0.061
DEEELGQRTAYHSKRDA [RPB2]	3.04 ± 0.098
DEEESNDEKQKAQDVDV [RPN13]	3.32 ± 0.049
DEEIIQLHFSLLDEEAE [RPO21]	2.83 ± 0.23
DEFPSELSDSDRQIINE [SIR4]	2.89 ± 0.15
DEGKEIPATIFDKVIYH [TAF14]	3.02 ± 0.056
DEIHIPAPSKPVIDYEL [BRR2]	2.78 ± 0.061
DEKDYLTNQQPKNLSTP [CSE2]	3.27 ± 0.069
DELDQEILNLSTQELQT [RPT5]	3.13 ± 0.078
DELRKQELISKAFTNWN [ISW2]	2.23 ± 0.067
DENDSKKNNAASELANP [YAR002W/NUP60]	2.97 ± 0.047
DENKDDELVKLLLDNGF [SRP68]	3.31 ± 0.094

Sequence	protein stability index
DEPMTTFYKCVNCGHRW [RPC11]	2.82 ± 0.086
DEQQREDNNDAVNSIMA [ECM29]	3.31 ± 0.074
DESLKDEATVPNTRDAE [SWI3]	3.14 ± 0.077
DESNDIDMIADENGTNS [RPC37]	3.12 ± 0.1
DEVTIRRTVGLKKDDYQ [SMC3]	2.35 ± 0.071
DFDGDEMNLHVPQTEEA [RPO31]	3.18 ± 0.051
DFDLFKEVLPDLQNLNL [YJL039C/NUP192]	3.4 ± 0.16
DFIQNVGRLWDQTFPIN [ECM29]	3.31 ± 0.045
DFKPPYIYSHVNKVPQN [SWP82]	2.62 ± 0.054
DFLRKATAFNKTRGPFH [RPL16A]	3.03 ± 0.12
DFVRKGGLQKGKLVVSQ [SIR3]	3.35 ± 0.077
DGAYALSASWDKTLRLW [ASC1]	3.26 ± 0.036
DGDASKPAFSFGAKSDE [YJL041W/NSP1]	3.43 ± 0.044
DGFDPRGNIKVMFATNR [RPT1]	3.24 ± 0.14
DGFNKTFHDELNLKFKE [YML103C/NUP188]	2.65 ± 0.054
DGKGAVYSFDPVGSYER [PRE7]	3.27 ± 0.081
DGLLEYLEDIIGTANYK [SMC4]	2.36 ± 0.054
DGRVNRFYELEESLTVL [YJR042W/NUP85]	1.99 ± 0.1
DGSAIEDDDIRSRMLPT [SNF5]	3.34 ± 0.057
DHEFVLISLIMTTWRKL [YMR129W/POM152]	1.26 ± 0.07
DHIAIDWEDEEKYEDED [DSN1]	2.12 ± 0.08
DHINWEHIKQDYVASLN [NSL1]	2.9 ± 0.056

Sequence	protein stability index
DHLVSSIPMGGQSINDS [ARP9]	3.13 ± 0.1
DHTVDEIDHVEYYVMMD [SRB8]	3.02 ± 0.047
DHVDGSSEFVSQDTKVI [RRP46]	2.8 ± 0.053
DHYESNQLVAKLLLLRI [SRB8]	2.34 ± 0.038
DIDGIMDNPRKLSKILR [SNU114]	2.96 ± 0.067
DIFITPTPVVTISEKEQ [SSN2]	1.67 ± 0.069
DIIWLQRDLGLYVVGLF [RRP6]	2.29 ± 0.12
DIKAPSTFENRNVGKTL [RPS1A]	3.1 ± 0.057
DIKVLKRQLIKERNQKF [YIL149C/MLP2]	2.41 ± 0.039
DILAKLFSLEKPNLNYF [SWI1]	2.08 ± 0.044
DILSKLYLLLARVFEIW [SNF11]	2.39 ± 0.041
DIPTIADEHFWADNYER [BRN1]	3.22 ± 0.04
DIRKFLDGIYVSHKGFI [RPL9A]	3.23 ± 0.1
DKKASMIISGSRDKTIK [ASC1]	1.96 ± 0.079
DKLLDPTTVSYIFCISR [SCL1]	3.22 ± 0.051
DKLSVSEISDGKLKRCS [SIN4]	3.6 ± 0.11
DKSLDSSNASFNNQGKL [MED1]	2.99 ± 0.045
DKYHEQWIKFLLHTLYL [SSN8]	2.43 ± 0.052
DLDETTQTFNGSIFTHE [YML031W/NDC1]	2.92 ± 0.033
DLETLTMHTKTYAAEIA [RPL32]	2.63 ± 0.059
DLGIKYDPSIGIFGMDF [RPL11A]	3 ± 0.037
DLIHKSEAFPSLQSCSV [SMC4]	2 ± 0.041

Sequence	protein stability index
DLISEILKWVQWSRIVL [MED1]	3.54 ± 0.061
DLKASQRVCLRSDSYML [RPT6]	2.82 ± 0.051
DLKFEPQGRQSTTFADC [RPC40]	3.15 ± 0.075
DLKKFTSTITKYKQLLL [RPN3]	3.07 ± 0.045
DLKKKLNSLKDERSQGE [SMC4]	3.71 ± 0.25
DLKLLFNTEAEQTVSAV [RGR1]	3.19 ± 0.066
DLLKFENISLAEFILKN [BRR2]	2.83 ± 0.074
DLLVIDSHKRIPDMSKN [SNU114]	3.24 ± 0.056
DLNNAVQKRDEVKEQLG [SMC4]	2.83 ± 0.042
DLNTRISVIETIRVVTE [RPN5]	2.97 ± 0.15
DLPDTEGLELLGWIHTQ [PRP8]	3.27 ± 0.045
DLPISSTDNEAITISNS [SMC1]	2.91 ± 0.059
DLQYLGEFSGKNFSPTK [RRP6]	3.24 ± 0.038
DLRLIKVPQQAAGKRIS [SMC1]	1.15 ± 0.07
DLSADKPTSPFIDSICK [SRB8]	1.93 ± 0.032
DLSLNIHPIPSVTVSQG [YMR129W/POM152]	2.17 ± 0.039
DLSYNFNVHEVPRAALE [YMR129W/POM152]	2.92 ± 0.049
DLTFKLADILKANISLE [RPO21]	2.32 ± 0.047
DLTQLLEKERSILDDIK [SMC4]	3.16 ± 0.043
DMAILERYYELAFDKLN [ARP7]	1.54 ± 0.18
DMAKLKKMMNTSDSEST [SWI3]	1.91 ± 0.036
DMDAESNESQNGKDSEI [SMC3]	3.31 ± 0.038

Sequence	protein stability index
DMKEYDSDKGSKLNELK [SMC2]	3.29 ± 0.14
DMLEHINLAMNESSLAL [SRB4]	1.52 ± 0.092
DMPSLRLIDLSGCENIT [GRR1]	2.65 ± 0.09
DNATLTELVDKANIFQV [SSN2]	3.11 ± 0.11
DNDGFSFLMRQFTRFFL [ECM29]	2.43 ± 0.047
DNDIMNLGSRTKNNTQA [SSN3]	2.977 ± 0.029
DNIGEIDESLFNLLILS [YCG1]	3.1 ± 0.14
DNVIVINHKINNKITQL [SIR3]	2.2 ± 0.04
DNVSKNALDKLRNNLNS [YCG1]	3.01 ± 0.17
DPALLRPGRIDRKIEFP [RPT6]	3.26 ± 0.048
DPETTATQKESLEMVPK [RGR1]	3.11 ± 0.046
DPGRYNKVCRIEAASTT [RPB8]	2.73 ± 0.082
DPKFRRNHKHALHGTAK [RPL29]	2.636 ± 0.019
DPKFVNSLLAKLKDSKK [YML103C/NUP188]	2.54 ± 0.082
DPKTSLRIVKPTVSLTI [RPC82]	3.34 ± 0.079
DPPIIIFINYKQTADWL [PRP28]	1.95 ± 0.042
DPPKGILLYGPPGTGKT [RPT1]	3.23 ± 0.17
DPSLNLKLLAKSHVLLA [BRR2]	2.06 ± 0.15
